Here are results for 19 sequences from the DeepSol protein solubility set.

The nature of this data set: soluble on expression in E. coli; label from the status in PepcDB or PDB records.
As to “MKSLSYKRIYKSQEYLATLGTIEYRSLFGSYSLTVDDTVFAMVSDGELYLRACEQSAQYCVKHPPVWLTYKKCGRSVTLNYYRVDESLWRNQLKLVRLSKYSLDAALKEKSTRNTRERLKDLPNMSFHLEAILGEVGRLAP”, the “soluble on expression in E. coli” value is “not soluble”.
On to “GMLKSKIKEEYVQMDQVDWKPFPAAFSTGGIRWKLLHVSPEMGSWTAIFDCPAGSSFAAHVHVGPGEYFLTKGKMDVRGGKAAGGDTAIAPGYGYESANARHDKTEFPVASEFYMSFLGPLTFVKPDGSPIAVIGWEDAQGAWAA”, for which the “soluble on expression in E. coli” value is listed as “soluble”.
For the sequence “MSLNRIILIGNGFDLAHGLPTRYEDFINWYWEKRVDSFIGNLTPISEDCLCSIKITSDNYNRCWNVFAFCLPKFFNKPSGKEIIDSIANDSKSFELSLSPFFFNICTCIETKGWVDIEKEYYDLLRNAIINPDNCNYTISEINKQLHYIQGLLAQYLSSITTDNIKCNKEIQRQIYGNIRKDDVSISQLQVYYDYVDHLIQQDNVYQQLLCRYGYESSDRHFMAEDIKQLRKQFVGSSEIEEIYLKDLIFPENIVLLNFNYTEVADKYGCLKVASTNHIHGDLNNPDSIIFGYGDELDEDYRDFLKQSDNECLRNIKSIKYLESGKYRNLLQFIESAPYQVYIMGHSCGNSDRTLLNTLFEHKNCVSIKPYYYQKDDGSDNYLEIAQNICRNFTDMKLMRDRVVNKMFCEPLPQYIKEGHHHHHH”, the “soluble on expression in E. coli” value is reported as “soluble”.
For “MTGQNGQVARISPGKFRQLGPVNWLVAKLAARAVGAPQMHLFTTLGYRQYLFWTFAIYTGRLLHGRLPGVDTELVILRVAHLRSCEYELQHHRRMARRRGLDANTQATIFAWPDVPDGDGPRKVLSARQQALLQATDELIKDRTITAGTWERLATHLDPRLLIEFCLLATQYDAIAATITALAIPPDNPQ”, the “soluble on expression in E. coli” value is given as “soluble”.
The same measure for “MSLENIIARRYAKAIASRADINDFYQNLCILNSAFVLPKFKNIIESNEIKKERKMEFLDSFFDIKNSSFQNFLRLLIENSRLECIPQIVKELERQKAFKENIFVGIVYSKEKLSQENLKDLEVKLNKKFDANIKLNNKISQDDSVKIELEELGYELSFSMKALQNKLNEYILKIEGHHHHHH”: “not soluble”; for “MDWRWWKIAYEELTEKQQRFVDKYITTFNATESAKQAGYSEKSAYSQGQRLLKNVEIQKAMKERFLEAKDTKGDRIQDVAETLEQDTSIARGEIQISEFKETDMLTGQVVIHTKREYTPSHEEQGRARDRIYKVNGAYSEKRELEHSGTVVFANEDNIPD”: “not soluble”.
On to “MALIVQKFGGTSVGTVERIQAVAQRIKRTVQGGNSLVVVVSAMGKSTDVLVDLAQQISPNPCRREMDMLLSTGEQVSIALLSLALQEIDQPAISLTGAQVGIVTEAEHSRARILEIRPDRLEHHLREGKVVVVAGFQGISSVEHLEITTLGRGGSDTSAVALAAALKADFCEIYTDVPGILTTDPRLVPEAQLMAEITCDEMLELASLGAKVLHPRAVEIARNYGIPLVVRSSWSDEPGTKVVAPPVQNRSLVGLEIAKAVDGVEYDADQAKVALLRVPDRPGVASKLFRDIAQQQVDIDLIIQSIHDGNSNDIAFTVVKDLLNTAEAVTSAIAPALRSYPEADQEAEIIVEKGIAKIAIAGAGMIGRPGIAAKMFKTLADVGVNIEMISTSEVKVSCVIDQRDADRAIAALSNAFGVTLSPPKNQTDTSHLPAVRGVALDQDQAQIAIRHVPDRPGMAAQLFTALAEANISVDMIIQSQRCRINQGTPCRDIAFMVAEGDSSQAEAILQPLIKDWLDAAIVVNKAIAKVSIVGSGMIGHPGVAAHFFAALAQENINIEMIATSEIKISCVVPQDRGVDALKAAHSAFNLAGTKTVTVPA”, for which the “soluble on expression in E. coli” value was “soluble”.
Regarding “MAHHHHHHMETIQELILSEENKTNIAVLNLGTNDRRNAVLILETALHLVEKYLGKIINTSYLYETVPEYIVLDKKESCEKINKDCRIYDVNYINELMQNLEESKYEENKELIDKCEEYETFLKNGKVDNSILKEVNVENYLLECNNIIVKNDEIMKNNLSKYKDKYYTSYFYNLTVVVKTFVNDPLSMLVVIKYIEELMKRENVKEKEKFENRIIDIDILFFNDFTIFMKNIKLEKNMIYKILSKYIHLERDIKNGNDNMSKVNMDKDINLNNNNNIKKKNNNDIDCDCVDQKMNNHVNNKNYINSFRDPQEIINNMVDNIEFLSIPHVYTTHRYSILLCLNDMIPEYKHNVLNNTIRCLYNKYVSRMKEQYNINIKENNKRIYVLKDRISYLKEKTNIVGILNVNYDSFSDGGIFVEPKRAVQRMFEMINEGASVIDIGGESSGPFVIPNPKISERDLVVPVLQLFQKEWNDIKNKIVKCDAKPIISIDTINYNVFKECVDNDLVDILNDISACTNNPEIIKLLKKKNKFYSVVLMHKRGNPHTMDKLTNYDNLVYDIKNYLEQRLNFLVLNGIPRYRILFDIGLGFAKKHDQSIKLLQNIHVYDEYPLFIGYSRKRFIAHCMNDQNVVINTQQKLHDEQQNENKNIVDKSHNWMFQMNYMRKDKDQLLYQKNICGGLAIASYSYYKKVDLIRVHDVLETKSVLDVLTKIDQV”, the “soluble on expression in E. coli” value is listed as “not soluble”.
As to “MSDQLQMTDGMHIIVEALKQNNIDTIYGVVGIPVTDMARHAQAEGIRYIGFRHEQSAGYAAAASGFLTQKPGICLTVSAPGFLNGLTALANATVNGFPMIMISGSSDRAIVDLQQGDYEELDQMNAAKPYAKAAFRVNQPQDLGIALARAIRVSVSGRPGGVYLDLPANVLAATMEKDEALTTIVKVENPSPALLPCPKSVTSAISLLAKAERPLIILGKGAAYSQADEQLREFIESAQIPFLPMSMAKGILEDTHPLSAAAARSFALANADVVMLVGARLNWLLAHGKKGWAADTQFIQLDIEPQEIDSNRPIAVPVVGDIASSMQGMLAELKQNTFTTPLVWRDILNIHKQQNAQKMHEKLSTDTQPLNYFNALSAVRDVLRENQDIYLVNEGANTLDNARNIIDMYKPRRRLDCGTWGVMGIGMGYAIGASVTSGSPVVAIEGDSAFGFSGMEIETICRYNLPVTIVIFNNGGIYRGDGVDLSGAGAPSPTDLLHHARYDKLMDAFRGVGYNVTTTDELRHALTTGIQSRKPTIINVVIDPAAGTESGHITKLNPKQVAGN”, the “soluble on expression in E. coli” value is listed as “soluble”.
With “MRQSTLHTRLSTGPGGSMRSSIEIFNIRTRKMRVVWQTPELFEAPNWSPDGKYLLLNSEGLLYRLSLAGDPSPEKVDTGFATICNNDHGISPDGALYAISDKVEFGKSAIYLLPSTGGTPRLMTKNLPSYWHGWSPDGKSFTYCGIRDQVFDIYSMDIDSGVETRLTHGEGRNDGPDYSPDGRWIYFNSSRTGQMQIWRVRVDGSSVERITDSAYGDWFPHPSPSGDKVVFVSYDADVFDHPRDLDVRVQLMDMDGGNVETLFDLFGGQGTMNSPNWSPDGDEFAYVRYFPVE”, the “soluble on expression in E. coli” value is listed as “soluble”.
Consider “MGSDKIHHHHHHVDIQQIRNATLVVNYANQVFLIDPFLGEKGSLPPFGETPNAVPNPLVDLPVDVSTLLDPDAIFVTHLHADHFDETAKEILPKQIPLYAQNQADAATIREAGFTNVSSFENGLALGDIRVYHTSGRHGVGEIGQRMGTVSGLVLTHPDEPTLYIAGDTIWCEEVETAIEQHAPDIIIVNSGAAQFLTGEPITMSQRDLLAVHQAAAEATIIVSHLESVNHCLLRRDMIADFLAAHHLSAHFLIPDDGETISF”, for which the “soluble on expression in E. coli” value is recorded as “not soluble”.
Consider “MRNETLVSIIVPVYNSAQYLRKCIDSILAQSYTEFELLLINDGSEDHSGLICDDYAQSDNRIQVFHQENAGVSAARNLGLEKHTGEHFLFIDSDDYIQERYLEELMKYASCDFVQCSCCSEPVGNDYLFVDGNFEGSDEIKQCLLKYIYPEFTVPFGRLYKSSIQRKNKLFFDTYLYSGEDTLWVSQYLLCVHSLRVSSYIGYIYVHHVGEHLSQKSISYEHLEYTLHKLLISYSDLEKRYDFDLTGVRYSVIIYFFHRYIVYIANRNYTEIRKELEKSCANPLIKGVFYDKKYLLKGKKMKLFNWLVLHDMYSVLALYVKRWKRYL”, for which the “soluble on expression in E. coli” value is reported as “not soluble”.
For the sequence “MKQQDNPLIEQFLDALWLERNLAENTLASYRLDLHALVGWLTHHNSDLLRASPQDLQSFLAERIEGGYKATSSARLLSAMRRLFQYLYREKLREDDPTALLSSPKLPQRLPKDLSEAQVDALLNSPNVDIPLELRDKAMLEVLYATGLRVSELVGLTISDVSLRQGVVRVIGKGNKERLVPLGEEAVYWIENYMEHGRPWLVNGASLDVLFPSNRSQQMTRQTFWHRIKHYAILAGIDSERLSPHVLRHAFATHLLNHGADLRVVQMLLGHSDLSTTQIYTHVATERLRQLHQQHHPRA”, the “soluble on expression in E. coli” value was “not soluble”.
As to “GPGSMAGWASLGRSFRTPESRSEELVKKAIEGDALRIGSGDTVKHEEAVSPFAAKLFSNITGSQRYVLIAVRHTQPATVDESRKAAIFHHDIRQAGIAMGHDEILAVGHARLEPGEQFGWREPLMLFVQIILIDKTGFHPSTCSLDAMFRLVVEWAGSRIKRMQPPHCISHDGYFLGRSKVR”, the “soluble on expression in E. coli” value is “not soluble”.
Consider “MGSDKIHHHHHHMVKVSIICTNYNKGSWIGEAIDSFLKQETSFPYEIIIVDDASTDHSVHIIKTYQKQYPDLIRAFFNQENQGITKTWSDICKKARGQYIARCDGDDYWIDPFKLQKQIDLLETSPESKWSNTDFDMVDSKGNIIHKDVLKNNIIPFMDSYEKMLALKGMTMASTWLVETKLMLEINDRINKDAVDDTFNIQLELFKKTKLAFLRDSTTVYRMDAESDSRSKDSEKLAQRFDRLLETQLEYIEKYPDSDYKKVLEYLLPKHNDFEKVLAQDGKNVWDNQQITIYLAKGDDQEFSEENCFQFPLQHSGNIQLTFPENIRKIRIDLSEIPSYYRQVSLVNTTVNTELLPTWTNAKVFGYSYYFIAPDPQMIYDLTAQEGQDFKLTYEWFNVDRPSQPDFLANHLVKELDQKKVELKMLSPYKYQYQKAVAERDLYLEQLNEMVVRYNSVTHSRRWTIPTKIINLFRRKK”, for which the “soluble on expression in E. coli” value was “not soluble”.
As to “MAFTESDVYNNEAFFKQYMKRRYRENSPNELIEKPAFFQLIGDVKGKKILDLGCGDAIFGKELLEKDCHSYTGIEGSELMYEKAKKQLENKNGIVHFLNLKDYTYPPATFDLVTSRLALHYIEHLPIIFQNVYETLKTNGTFTFSVQHPVITSSFESLQTSGKRTSWLVDDYFKTGKRVEPWIDQKVIKYHRTTEEYFTLLQQAGFTITNLKEATPNQTYFQSAEEYERRLRIPLFLLFSCRKLEHHHHHH”, the “soluble on expression in E. coli” value is on record as “soluble”.
For “MSLTDPNRLTLFYSPQTRATGMRVLLEELGAPYDLHVLNMKAGEQRQPAYLAINPLGKVPAIRRGDALVTEQVAITIYLADLFPGAGLAPSLDDPLRGPYLRWIAYYGSTFEPAVVDRSMQREPGPAEMSPYADYDTMLGALEAQLATGPYLLGDRFTAADVLWGIALNWTLNFGLVPKKDAFVRYAELVTARPAFRRVDLADAEMAAEGHHHHHH”, the “soluble on expression in E. coli” value is “soluble”.
“ESRLDRILESGVLRVATTGDYKPFSYRTEEGGYAGFDVDMAQRLAESLGAKLVVVPTSWPNLMRDFADDRFDIAMSGISINLERQRQAYFSIPYLRDGKTPITLCSEEARFQTLEQIDQPGVTAIVNPGGTNEKFARANLKKARILVHPDNVTIFQQIVDGKADLMMTDAIEARLQSRLHPELCAVHPQQPFDFAEKAYLLPRDEAFKRYVDQWLHIAEQSGLLRQ”: the “soluble on expression in E. coli” value was “not soluble”.
Take “MVINSINWLFSEVVAMAVGEKITISVIKADVGGWPGHSRVHPALIEKAREVLSEAQKNGTIIDFYVTYAGDDLQLIMTHKKGVDSPEVHGLAWEAFKKATEVAKELGLYGAGQDLLKDAFSGNVRGLGPSVAEMEITLRKSEPIVTFHLDKTEPGAFNLPIFRMFADPFNTAGLVIDPKMHMGFRFEIWDILEHKKVIMSSPEEMYDILALIGAKSRYVIKRVYPKEGHPVPKDEPVAVVSTEKLYEVAGEYVGKDDPVAIVRAQSGLPALGEVLEPFAFPHLVSGWMRGSHNGPLMPVPLKYATPTRFDGPPRAVALGWQISPEGKLIGPVDLFDDPAFDWARQKALEITDYIRRHGPFEPHRLPSEEMEYTTLPGVLEKLKDRFEPIE”: the “soluble on expression in E. coli” value is reported as “soluble”.
